{"source": "the supplement of paper PMC6755084", "parents": {"B1": {"name": "F1*; the commonest letter at each place (parent)", "chain": "GAGACCGCAACTGAAAAGTTGTTATCACTTGTCGTAAGACACTTTGGATGGGTTGAAGTTCTGCACGTAGAAGCAAAAGGC"}}}
{"variants_of": "B1", "assay": "fraction ligated after 30 min (ligated reads / total reads); higher = more ligase activity", "conditions": "with F1*sub RNA substrate (template-directed ligation), 42 °C", "method": "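Chip-synthesised pool of F1* ligase ribozyme variants (all single and double substitutions, single, double and triple deletions in the catalytic core and GAA bulge, plus designed variants) was transcribed with T7 and reacted as a pool with excess substrate F1*sub for 30 min at 42 C in 50 mM EPPS pH 8.5, 25 mM MgCl2. Ligated and unligated bands were separated by PAGE, barcoded by RT and deep sequenced; fraction ligated = ligated reads / total reads per variant, relative activity = FL / FL of wild type (0.826). Sequences are the DNA template of the ribozyme.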"}
{"variant": "C26A A36G", "fraction ligated": 0.781}
{"variant": "C26A A36C", "fraction ligated": 0.79}
{"variant": "T25G C26A", "fraction ligated": 0.261}
{"variant": "T25G C26G", "fraction ligated": 0.0648}
{"variant": "T25G C26T", "fraction ligated": 0.191}
{"variant": "T25C T45G", "fraction ligated": 0.0359}
{"variant": "C26G G34C", "fraction ligated": 0.371}
{"variant": "C26G G34A", "fraction ligated": 0.357}
{"variant": "C26G G34T", "fraction ligated": 0.718}
{"variant": "T25G T30A", "fraction ligated": 0.674}
{"variant": "T25G T30G", "fraction ligated": 0.776}
{"variant": "T25G T30C", "fraction ligated": 0.372}
{"variant": "C26G G47A", "fraction ligated": 0.8}
{"variant": "C26G G47C", "fraction ligated": 0.404}
{"variant": "C26G G47T", "fraction ligated": 0.159}
{"variant": "T25G G38A", "fraction ligated": 0.676}
{"variant": "T25G G38C", "fraction ligated": 0.165}
{"variant": "T25G G38T", "fraction ligated": 0.659}
{"variant": "C26T G46C", "fraction ligated": 0.81}
{"variant": "C26T G46T", "fraction ligated": 0.758}
{"variant": "C26T G46A", "fraction ligated": 0.835}
{"variant": "C26A G38T", "fraction ligated": 0.793}
{"variant": "C26A G38A", "fraction ligated": 0.774}
{"variant": "C26A G38C", "fraction ligated": 0.313}
{"variant": "C26G C28A", "fraction ligated": 0.688}
{"variant": "C26G C28T", "fraction ligated": 0.558}
{"variant": "C26G C28G", "fraction ligated": 0.611}
{"variant": "C26G T45C", "fraction ligated": 0.00783}
{"variant": "C26G T45G", "fraction ligated": 0.0236}
{"variant": "C26G T45A", "fraction ligated": 0.0653}
{"variant": "C26T T35C", "fraction ligated": 0.792}
{"variant": "C26T T35A", "fraction ligated": 0.854}
{"variant": "C26T T35G", "fraction ligated": 0.817}
{"variant": "C26T T49C", "fraction ligated": 0.122}
{"variant": "C26T T49A", "fraction ligated": 0.392}
{"variant": "C26G A57C", "fraction ligated": 0.33}
{"variant": "C26G A57T", "fraction ligated": 0.312}
{"variant": "C26G A57G", "fraction ligated": 0.576}
{"variant": "C26A G50T", "fraction ligated": 0.0739}
{"variant": "C26A G50C", "fraction ligated": 0.0201}
{"variant": "C26A G50A", "fraction ligated": 0.0155}
{"variant": "C26G A48G", "fraction ligated": 0.058}
{"variant": "C26G A48C", "fraction ligated": 0.104}
{"variant": "C26G A48T", "fraction ligated": 0.00571}
{"variant": "C26T T29C", "fraction ligated": 0.848}
{"variant": "C26T T29G", "fraction ligated": 0.816}
{"variant": "C26T T29A", "fraction ligated": 0.845}
{"variant": "C26A G47C", "fraction ligated": 0.0466}
{"variant": "C26A G47A", "fraction ligated": 0.762}
{"variant": "C26A G47T", "fraction ligated": 0.235}
{"variant": "C26T T45G", "fraction ligated": 0.28}
{"variant": "C26T T45C", "fraction ligated": 0.524}
{"variant": "C26T T45A", "fraction ligated": 0.779}
{"variant": "C26A T30G", "fraction ligated": 0.802}
{"variant": "C26A T30A", "fraction ligated": 0.791}
{"variant": "C26A T30C", "fraction ligated": 0.781}
{"variant": "T25G G50A", "fraction ligated": 0.103}
{"variant": "T25G G50T", "fraction ligated": 0.436}
{"variant": "T25G G50C", "fraction ligated": 0.142}
{"variant": "C26T T30G", "fraction ligated": 0.861}
{"variant": "C26T T30A", "fraction ligated": 0.832}
{"variant": "C26T T30C", "fraction ligated": 0.839}
{"variant": "C26A C28G", "fraction ligated": 0.395}
{"variant": "C26A C28A", "fraction ligated": 0.64}
{"variant": "C26A C28T", "fraction ligated": 0.584}
{"variant": "C26T G50C", "fraction ligated": 0.0206}
{"variant": "C26T G50A", "fraction ligated": 0.0828}
{"variant": "C26T G50T", "fraction ligated": 0.238}
{"variant": "C26T C42G", "fraction ligated": 0.795}
{"variant": "C26T C42A", "fraction ligated": 0.804}
{"variant": "C26T C42T", "fraction ligated": 0.837}
{"variant": "C26A C33T", "fraction ligated": 0.829}
{"variant": "C26A C33A", "fraction ligated": 0.721}
{"variant": "C26A C33G", "fraction ligated": 0.792}
{"variant": "C26G G46C", "fraction ligated": 0.719}
{"variant": "C26G G46A", "fraction ligated": 0.785}
{"variant": "C26G G46T", "fraction ligated": 0.417}
{"variant": "C26T G34A", "fraction ligated": 0.832}
{"variant": "C26T G34C", "fraction ligated": 0.855}
{"variant": "C26T G34T", "fraction ligated": 0.812}
{"variant": "C26A A41T", "fraction ligated": 0.768}
{"variant": "C26A A41G", "fraction ligated": 0.761}
{"variant": "C26A A41C", "fraction ligated": 0.21}
{"variant": "C26A A48G", "fraction ligated": 0.123}
{"variant": "C26A A48C", "fraction ligated": 0.366}
{"variant": "C26A A48T", "fraction ligated": 0.00798}
{"variant": "C26G T30G", "fraction ligated": 0.757}
{"variant": "C26G T30C", "fraction ligated": 0.676}
{"variant": "C26G T30A", "fraction ligated": 0.8}
{"variant": "T25G T49G", "fraction ligated": 0.779}
{"variant": "T25G T49C", "fraction ligated": 0.527}
{"variant": "T25G T49A", "fraction ligated": 0.723}
{"variant": "T25G C33G", "fraction ligated": 0.535}
{"variant": "T25G C33A", "fraction ligated": 0.526}
{"variant": "T25G C33T", "fraction ligated": 0.704}
{"variant": "T25G A48T", "fraction ligated": 0.818}
{"variant": "T25G A48C", "fraction ligated": 0.819}
{"variant": "T25G A48G", "fraction ligated": 0.291}
{"variant": "C26G T32A", "fraction ligated": 0.238}
{"variant": "C26G T32G", "fraction ligated": 0.125}
{"variant": "C26G T32C", "fraction ligated": 0.245}
{"variant": "T25G A37T", "fraction ligated": 0.808}
{"variant": "T25G A37G", "fraction ligated": 0.806}
{"variant": "T25G A37C", "fraction ligated": 0.757}
{"variant": "C26A A37T", "fraction ligated": 0.797}
{"variant": "C26A A37C", "fraction ligated": 0.781}
{"variant": "C26A A37G", "fraction ligated": 0.785}
{"variant": "C26T A27G", "fraction ligated": 0.771}
{"variant": "C26T A27C", "fraction ligated": 0.811}
{"variant": "C26T A27T", "fraction ligated": 0.808}
{"variant": "C26G C33G", "fraction ligated": 0.754}
{"variant": "C26G C33T", "fraction ligated": 0.738}
{"variant": "C26G C33A", "fraction ligated": 0.473}
{"variant": "C26G A27T", "fraction ligated": 0.411}
{"variant": "C26G A27G", "fraction ligated": 0.694}
{"variant": "C26G A27C", "fraction ligated": 0.782}
{"variant": "C26A T43C", "fraction ligated": 0.755}
{"variant": "C26A T43A", "fraction ligated": 0.809}
{"variant": "C26A T43G", "fraction ligated": 0.547}
{"variant": "C26T A48C", "fraction ligated": 0.418}
{"variant": "C26T A48T", "fraction ligated": 0.0105}
{"variant": "C26T A48G", "fraction ligated": 0.756}
{"variant": "C26T A56C", "fraction ligated": 0.29}
{"variant": "C26T A56T", "fraction ligated": 0.867}
{"variant": "C26T A56G", "fraction ligated": 0.768}
{"variant": "C26A T45A", "fraction ligated": 0.366}
{"variant": "C26A T45C", "fraction ligated": 0.0795}
{"variant": "C26A T45G", "fraction ligated": 0.0382}
{"variant": "C26T G47C", "fraction ligated": 0.0296}
{"variant": "C26T G47A", "fraction ligated": 0.843}
{"variant": "C26T G47T", "fraction ligated": 0.182}
{"variant": "C26T G55C", "fraction ligated": 0.3}
{"variant": "C26T G55A", "fraction ligated": 0.811}
{"variant": "C26T G55T", "fraction ligated": 0.815}
{"variant": "C26A T35G", "fraction ligated": 0.794}
{"variant": "C26A T35C", "fraction ligated": 0.807}
{"variant": "C26A T35A", "fraction ligated": 0.803}
{"variant": "T25G A27T", "fraction ligated": 0.706}
{"variant": "T25G A27C", "fraction ligated": 0.705}
{"variant": "T25G A27G", "fraction ligated": 0.434}
{"variant": "C26G A36T", "fraction ligated": 0.773}
{"variant": "C26G A36G", "fraction ligated": 0.767}
{"variant": "C26G A36C", "fraction ligated": 0.0567}
{"variant": "C26T A41T", "fraction ligated": 0.796}
{"variant": "C26T A41C", "fraction ligated": 0.771}
{"variant": "C26T A41G", "fraction ligated": 0.813}
{"variant": "C26T T43A", "fraction ligated": 0.827}
{"variant": "C26T T43G", "fraction ligated": 0.79}
{"variant": "C26T T43C", "fraction ligated": 0.788}
{"variant": "T25G A41T", "fraction ligated": 0.662}
{"variant": "T25G A41G", "fraction ligated": 0.492}
{"variant": "T25G A41C", "fraction ligated": 0.0915}
{"variant": "T25G G34C", "fraction ligated": 0.737}
{"variant": "T25G G34T", "fraction ligated": 0.735}
{"variant": "T25G G34A", "fraction ligated": 0.77}
{"variant": "T25G G47C", "fraction ligated": 0.242}
{"variant": "T25G G47T", "fraction ligated": 0.102}
{"variant": "T25G G47A", "fraction ligated": 0.363}
{"variant": "C26A", "fraction ligated": 0.788}
{"variant": "C26T", "fraction ligated": 0.836}
{"variant": "C26G", "fraction ligated": 0.773}
{"variant": "C26G G50T", "fraction ligated": 0.0691}
{"variant": "C26G G50A", "fraction ligated": 0.0221}
{"variant": "C26G G50C", "fraction ligated": 0.0252}
{"variant": "C26T T32G", "fraction ligated": 0.801}
{"variant": "C26T T32C", "fraction ligated": 0.792}
{"variant": "C26T T32A", "fraction ligated": 0.701}
